From a protein production outcome set (Wang et al. 2014) come the findings set out here.

This series in a line: label from the status in PepcDB records.

With “MSSHPPIRSYVLRQGYFSNAQRHAYESLLPRYGIPLTEEPVDLDSIFGRTAPGILEIGSGMGETTAEIARQHPEKDFIAIEVHAPGIGSLLGQIEKHRLTNLRIIPHDAKLVLQQMFTSESLDGIHIFFPDPWPKARHHKRRLIQPDFVSLLCDRLKPGGYLHIATDWEDYATHILHVLRSEERFVNTAVDYAARPAYRPLTKFEQRGMKLGHTIRDIIFTRTALEHHHHHH”, the protein production entry is given as “failed”.

Consider “MSSHPYVTQQNTPLADDTTLMSTTDLQSYITHANDTFVQVSGYTLQELQGQPHNMVRHPDMPKAAFADMWFTLKKGEPWSGIVKNRRKNGDHYWVRANAVPMVREGKISGYMSIRTRATDEE”, for which the protein production result is “failed”.

Take “MSSILSDTAPRFLADYRPADFTINTVNLTIHLDDTCSQVVSELTIERKGDVQQALQLNGEHLTLVSLVLDNQALSKDQYQINETLLIIPASSLPDRSHFTLIITTEINPQENTALEGLFKSGDAFCTQCEAEGFRRISYYLDRPDVMATFTTKVIADKNLYPYLLSNGNKVASGELSDNKHFVTWHDPFPKPCYLFALVAGNFDLLEDNFTTASGREVALEIFVDEGNLAKAEHAMTSLQKSMAWDEETFGLEYDLDIYMIVAVDFFNMGAMENKGLNVFNSKYVLADSHCATDSDYFNIEAVIAHEYFHNWTGNRVTCRDWFQLSLKEGLTVFRDQQFSAQMHSSAVTRIQNVRVLRSQQFAEDAGPMAHPIRPEKVLEMNNFYTLTVYEKGSEVIRMLHTLIGVDKFRQGMDLYFSRFDGMAVTCDDFINAMSDASGKDLAQFKLWYSQSGTPVIKAQEMFDSQTNIYTLTLLQQSPITKNQQNPQALHIPIKVELISDNNNEASQSELLELTQTEQSWQFSGFTSKPTLAMLADFSAPVKLIFDQNNTSLLTIMQQADNSFCRWDAGQKLLMSYLHQLTFDIDYTIPNELINAINDMLNSGGDRAFIAEQLSLPSFDEAASLMVDIDPIALTNAITTLATFIARGTQQQLLVSYKACQHEDLKDNAVANRALKNVCLSYLSLLPEYQYLVTQQYQQATNNDDILKENMTDSLAALTCSSKNNLDDLNEQLEHFENKWQQTTLVMDKWFALNASVVSEDVFTQLANLLEHPQFSLKNPNRARSLIGAFAMNNPKYFHCPTGRGYQFLADQIAKLNEINPQVASRLITPLIQFKSFAPAHQKLMKAELVKLQALTNLSNDLKEKLDAALND”: the protein production result is “failed”.

Regarding “MSSKDKKLSKPTSGRTGGIRTLSDLNRRSEPDSDSDSDGPQEYFTGGEKSGMLVQDPTKEPKHDDVDEIFNQARQLGAVEGPLEHPSSSRSFTGTGRLLSGESVPTALQQPEPVIHNIIFWSNGFTVDDGPLRKLDDPENASFLDSIRKSECPKELEPVDKRAPVHVNLMRRDEKCPEKEKLKVSFQGVGRTLGGASSSTASSQSNLTDVAAVQSPLQSLVVDETLPSTSIQLRLADGTRMVAKFNNHHTVNDIRGFIEFSRPGNPNNYTLQVMGFPPKPLTDPSQTIEQAGLASSVVIQKF”, the protein production entry is “not failed”.

As for “MSSLNLSPAAVSELVFSQTGLALISLLLTLFCYFAAKILYQRHRVWWLAPIVLAPVVITLLVFNLDIPLPTYFEYTHWLMAMLAPATIAFALPIYRERKLIRQYPLTIAFGVIAGLLLGMVSSWLLVKFVPLPVELSKSLLVRSVSTPFAMEATGAFGGVPELTAMMVLITGIIGMLVCEPLFKLMHIRTSLGKGVALGASAHGAGAAKASELGQQEGVIASLTMIFIGIAMVLGAPFFALIFS”, the protein production entry is listed as “failed”.

For the sequence “MSSQSIDDKFMSITQMKNLIHYVKKNDALSHLCIYILIITGSRFKPVQHLRYEDLNFKKSCIHLNDTKNKYSKRNVKVRIKDLEYIQSVINKHPINQNGYIFHNFINFISYSAINDVLVRFCLKYKYDKYTLKSLRHTHCSYLLAKGISIQYISKRLGHADIHTTLKIYSHLIKEFEDSENSLIEKNLNDLFSDLEHHHHHH”, the protein production result is given as “failed”.

Consider “MSSSGIEIAKPFVTATTNVLSTMAGIQPIPGQPYVKKNNVAKGDVSAVVGITGHKNGSISVTFTKQCAIAVVKAMLGDDIQDIIQDTKDAVGEVTNMISGQARAALSEMGMTFQGATPSVIMGDGHTISHVTKSPVIAIPFKTNHGEFTVEFCLE”, for which the protein production result is listed as “not failed”.

Take “MSSSLLSVLKEKSRSLKIRNKPVKMTSQERMIVHRCRFVDFTPATITSLAFSHKSNINKLTPSDLRLAIGRSNGNIEIWNPRNNWFQEMVIEGGKDRSIEGLCWSNVNGESLRLFSIGGSTVVTEWDLATGLPLRNYDCNSGVIWSISINDSQDKLSVGCDNGTVVLIDISGGPGVLEHDTILMRQEARVLTLAWKKDDFVIGGCSDGRIRIWSAQKNDENMGRLLHTMKVDKAKKESTLVWSVIYLPRTDQIASGDSTGSIKFWDFQFATLNQSFKAHDADVLCLTTDTDNNYVFSAGVDRKIFQFSQNTNKSQKNNRWVNSSNRLLHGNDIRAICAYQSKGADFLVSGGVEKTLVINSLTSFSNGNYRKMPTVEPYSKNVLVNKEQRLVVSWSESTVKIWTMGTDSSTEQNYKLVCKLTLKDDQNISTCSLSPDGQVLVVGRPSTTKVFHLQPVGNKLKVTKLDNDLLLRTSTKLVKFIDNSKIVICSCEDDVFIVDLESEEDEKPQEVELLEVTSTKSSIKVPYINRINHLEVDQNIAVISRGCGVVDILDLKARISKPLARLNNFITAVHINTSRKSVVVITADNKIYEFNMNLNSEAENEDSESVLTQWSKNNTDNLPKEWKTLKENCVGIFSDIENSSRLWFWGATWISRIDFDVDFPINKRRKQKKRTHEGLTITDESNFMNDEEDDEDDDIDMEISENLNVLLNQGNKIKSTDVQRNEESSGHFFFTDKYKPLLFVDLISSNELAIIERNPLTFHSKQKAFIQPKLVF”: the protein production entry is “failed”.

Turning to “MSSSQQIAKNARKAGNILKTISNEGRSDILYKIHDALKANAHAIEEANKIDLAVAKETGLADSLLKRLDLFKGDKFEVMLQGIKDVAELEDPVGKVKMARELDDGLTLYQVTAPVGVLLVIFESRPEVIANITALSIKSGNAAILKGGKESVNTFREMAKIVNDTIAQFQSETGVPVGSVQLIETRQDVSDLLDQDEYIDLVVPRGSNALVRKIKDTTKIPVLGHADGICSIYLDEDADLIKAKRISLDAKTNYPAGCNAMETLLINPKFSKWWEVLENLTLEGGVTIHATKDLKTAYFDKLNELGKLTEAIQCKTVDADEEQDFDKEFLSLDLAAKFVTSTESAIQHINTHSSRHTDAIVTENKANAEKFMKGVDSSGVYWNASTRFADGFRYGFGAEVGISTSKIHARGPVGLDGLVSYQYQIRGDGQVASDYLGAGGNKAFVHKDLDIKTVTLZ”, the protein production result was “not failed”.

Turning to “MSSSSSVPAYLGDEDLTQETRALISSLPKEKGWLVSEIYEFQGLWHTQAILQGILICQKRFEAKDSDIILVTNPKSGTTWLKALVFALLNRHKFPVSSSGNHPLLVTNPHLLVPFLEGVYYESPDFDFSSLPSPRLMNTHISHLSLPESVKSSSCKIVYCCRNPKDMFVSLWHFGKKLAPEETADYPIEKAVEAFCEGKFIGGPFWDHILEYWYASRENPNKVLFVTYEELKKQTEVEMKRIAEFLECGFIEEEEVREIVKLCSFESLSNLEVNKEGKLPNGIETKTFFRKGEIGGWRDTLSESLAEEIDRTIEEKFKGSGLKFSS”, the protein production result is “not failed”.

In the case of “MSSSTSQDFVSRPVIKKVFAKLQKEGDGAVVRRGISRSEQKLLDPFLMLDEFSVSPPAGFPDHPHRGITHQDFKGHKGTIYAGDVQWMTAGRGIIHSEMPEEEVNKEPNYQELSHSDIPKAEQNGVEVKVIAGESMGIQSPVYTRTPTMFLDFTLQPGAQIHQNVPESWNAFAYILESGEGGGVFSSSNSSPIPAHSVVVFGPGNDGVSVWNKSSSKQLRFVLIAGEPIGEPVVQYGPFVMNTQAEIDMTIEDYHYGKNGFEMAKYWRSQ”, the protein production result is given as “failed”.

For the sequence “MSSVPRFWRNLGSRYNLEGTRCKECGEYFYPPRNVCVNCRRMGELEPFKFKGTGEIVSYTLIHTGAEGFEGQAPYTLAIIKLDEGPRLTSQVVGNTDNIQIGTRVRSVFRKLGEDGERGMIYYGTKFVPVDALEHHHHHH”, the protein production entry is “not failed”.

Regarding “MSSVSEVNVDIKDFLMSINLEQYLLHFHESGFTTVKDCAAINDSLLQKIGISPTGHRRRILKQLQIILSKMQDIPIYA”, the protein production result is “not failed”.

Turning to “MSTKDKYDILNLCFYEKEAIMANVLFLVGSLRDGSFNHQMAKKAEAFLTDKAQVSYIDLAKIPLFNQDIETPILPEIAELRAQVDAADAIWIFSPVYNYAIPGIVKNALDWLSRSLDLSNPKGPSILQDKITTVSAVANSGHDHLFKDFQHLLPFIRTQIAGEFTGSTINPEAWGTGVLELSDETLTKLEQQVADLLAAIQ”, the protein production entry is listed as “failed”.

For “MSTPDATSPGSQQQDVFDFLGRGAGDAPVVRIDTHGAAVFLEGNRAMKIKRAVKFPFLDYSTLAKRKIACEQELEVGHRFAPTIYRRVVPITRTDKGALQIGGEGPAVEWAVEMMRFDDSATLDHLARAGSLGPGLIDAVADAIAASHQAAPLAATAPWGASIEPILADDTNELAAGGFAAADVAALDNGSRNALGRLRPLLEQRGVAGFVRWCHGDLHLANIVVIDGKPTLFDAIEFDPALASVDVLYDLAFPLMDLLHYGRGSDSAQLLNRYLAVTNADNLDALSALPLLLSMRAAIRAKVMLARPAADETIRRANRAIAESYFELALRLIAPPPPRLIAVGGLSGTGKSVLARALSGNVPPLPGAVVLRSDVARKRLHGVADTERLPATAYTTEVTEAVYRGLVERAAHILKQGHSVIVDAVFSKPEERDAIESVAAGLGISFHGLFLTADLATRVARVAGRTADASDATPEIVRQQQSYAQGVIGWTSIDAGGTPAETLSRAVAALPQTAQVCSTLEHHHHHH”, the protein production result is “not failed”.

As to “MSTPDNRSVNFFSLFRRGQHYAKTWPMEKRLAPVFVENRVIRMTRYAIRFMPPVAVFTLCWQIALGGQLGPAVATALFALSLPMQGLWWLGKRSVTPLPPSILNWFYEVRGKLQEAGQALAPVEGKPDYQALADTLKRAFKQLDKTFLDDL”, the protein production entry is recorded as “not failed”.

Regarding “MSTPRPSLTLTLLQAREAAMSFFRPSLNQHGLTEQQWRVIRILRQQGEMESYQLANQACILRPSMTGVLARLERDGIVRRWKAPKDQRRVYVNLTEKGQQCFVSMSGDMEKNYQRIQERFGEEKLAQLLELLNELKKIKP”, the protein production result was “not failed”.

On to “MSTRRSAFLRGLWAATPFSLVIAPFGLLFGVVGTEAGLDIVEVMGFSIIVIAGAAQFAAVQMMADHAPTLIILATSLAVNLRMAMYSASLTPHLGPAPAGLRALIAYCLVDQTYTASMIEFDRAPQQSLGEKIAFFFGTVLPVCPLWYGSTYVGARLGTKIPPEFALDFAVPITFLAMIAPLLRTPAHIAAAGVSVALSLVLAFMPYNSGLLVAAVAAMVTGAQVEAWTERRRAA”, for which the protein production entry is “failed”.

Take “MSTSMPTALAGGRYQLGQLIGRGGMAEVHVALDTRLGRTVAVKIMRADLANDDIFLARFRREAHAVAQMNNPNIVNIYDSGEELVSSESGDTERLPYIVMEYVKGQTLRDIIKVNGALSQRDCEQVLLGVLNALDYSHRMGIIHRDIKPGNIMISEQGVVKVMDFGIARALDDSAATMTQSQGVVGTAQYLSPEQARGETVDMRSDLYSAGCVLYEMLTGRPPFTGDSAVAIAYQHVSEVATPPSAVVPGLPKMWDSICAKAMAKDRQNRYATASEFKTDILTYMNGGVPVAAAFNPLTDLSNMKARKEAERDLPTTPVEPQQQPTQAFNPVTGQFEQIPPANGANSAALQSRAQQRAAAAKAKKRKKIIIGSVIAVLAVALVGAGVVFAMSGAPNKSAEDKVTIPEVCNASTSKDNIKLKLETLGLTMVGKQDTDSTEPEGTCTKMSPEAGAKVAKGSKVKVWFSAGPQSTQVPDVKERSQEEARSILESAGFKVNATVRTEDSADIAKDMVTKTDPAAGQSVPKGTTITIYVSSGMTTVPSNLVGQSKDSVLQQYEGRFSFTVEQESSDTVEAGLITRVSPDSGSSIAQGGSITIWVSTGKEKVAVPNIAAGTKYATAELMLKAVGLKAQANGPADPTAVVVGIDPGAGAQVDVGSTVTITTKAAVTGDNNGNGNGNAGGSSSTGGTGPGGDK”: the protein production result is listed as “failed”.
